In PMC12599243, “Mechanistic insights into DNA binding by BD1 of the TAF1 tandem bromodomain module” one finds Kd and fold decrease in binding against wildtype data, which are given here for four molecules.

The target in data set [1] is T1, TAF1 tandem bromodomain (BD1-BD2) (human, UniProt P21675 1402-1656).
T1 sequence: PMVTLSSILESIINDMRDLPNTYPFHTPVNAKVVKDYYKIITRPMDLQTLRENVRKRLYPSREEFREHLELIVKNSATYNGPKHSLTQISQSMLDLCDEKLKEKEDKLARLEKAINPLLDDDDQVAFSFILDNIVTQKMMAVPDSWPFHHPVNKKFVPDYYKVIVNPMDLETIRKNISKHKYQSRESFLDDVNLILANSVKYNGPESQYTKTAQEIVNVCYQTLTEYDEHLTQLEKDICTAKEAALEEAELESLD
Nature of the data set: EMSA. The conditions noted are these: EMSA: 50 mM HEPES pH 7.5, 100 mM NaCl, 35 nM DNA, 1 h at 4 C, 6% native PAGE, 0.5x TBE, 100 V on ice. HeLa mononucleosome pulldown (undefined DNA) not listed. (In general: A gel shift assay detects complexes by their altered migration in electrophoresis.)

Data set [2] deals with Histone H4 H4K5acK12ac peptide (Homo sapiens) (UniProt P62805). The following applies: cited from earlier work.
Data set [3] deals with Histone H4 H4K8acK16ac peptide (Homo sapiens) (UniProt P62805). The following applies: cited from earlier work.
For data set [4], the target named is TAF1 tandem bromodomain BD1 triple mutant (R1435S/K1436S/R1437S), 6xHis-tagged (human). Nature of the data set: pull-down; 20 μg hyperacetylated HeLa mononucleosomes (cells treated with trichostatin A) mixed with 50 μM 6xHis-tagged TAF1 tandem bromodomain or its mutant, 4°C, 60 min; captured on Ni-NTA agarose; washed with 50 mM HEPES pH 7.5, 500 mM KCl, 2 mM EDTA, 0.1% Tween-20; eluted with 500 mM imidazole; western blot with anti-H4K5ac and anti-H4K8ac.

In data set [5] the target is T1, TAF1 tandem bromodomain (BD1-BD2). Put plainly: EMSA; no peptide; EMSA: 50 mM HEPES pH 7.5, 100 mM NaCl, 35 nM DNA, 1 h at 4 C; 6% native PAGE, 0.5x TBE, 100 V on ice. HeLa mononucleosome pulldown (undefined DNA) not listed. The conditions noted are these: protein: recombinant; tags: C-terminal 6xHis; label: none (SYBR Gold stain); blunt.

For the molecule 147 bp Widom 601 DNA, the Kd in data set [1] (320 uM H4(1-15)K5acK12ac peptide) is 19.7 µM; in data set [1] (no peptide), 16.8 µM.

“TAF1 tandem bromodomain (from UniProt P21675)”: the Kd was 1.4 µM in data set [2] and 5.3 µM in data set [3].

“acetylated mononucleosomes isolated from HeLa cells (from UniProt P62805 1-103) (complex)”: the fold decrease in binding against wildtype in data set [4] amounted to 1.5 fold.

B1: 147 bp GC-rich 601 DNA (AT-tracts mutated to GC) (dsDNA)
DNA 1: CTGGAGAATCCCGGTGCCGAGGCCGCTCGACTGGTCGTAGACAGCTCTAGCACCGCTCAGACGCACGTACGCGCTGTCCCCCGCGTTTCAGCCGCCAAGGGGACTGCTCCCTAGTCTCCAGGCACGTGTCAGATGCGTACATCCTGT
DNA 2: ACAGGATGTACGCATCTGACACGTGCCTGGAGACTAGGGAGCAGTCCCCTTGGCGGCTGAAACGCGGGGGACAGCGCGTACGTGCGTCTGAGCGGTGCTAGAGCTGTCTACGACCAGTCGAGCGGCCTCGGCACCGGGATTCTCCAG
Consider B1, for which, in data set [5], the Kd is 34.2 ± 5.4 µM.

The term Kd denotes the concentration at which binding is half-saturated.
